These results are taken from patent US20190257837.

The target in this data set is T1, human recombinant nidogen-1 (intact, incubated without proteases), P14543.
T1 chain: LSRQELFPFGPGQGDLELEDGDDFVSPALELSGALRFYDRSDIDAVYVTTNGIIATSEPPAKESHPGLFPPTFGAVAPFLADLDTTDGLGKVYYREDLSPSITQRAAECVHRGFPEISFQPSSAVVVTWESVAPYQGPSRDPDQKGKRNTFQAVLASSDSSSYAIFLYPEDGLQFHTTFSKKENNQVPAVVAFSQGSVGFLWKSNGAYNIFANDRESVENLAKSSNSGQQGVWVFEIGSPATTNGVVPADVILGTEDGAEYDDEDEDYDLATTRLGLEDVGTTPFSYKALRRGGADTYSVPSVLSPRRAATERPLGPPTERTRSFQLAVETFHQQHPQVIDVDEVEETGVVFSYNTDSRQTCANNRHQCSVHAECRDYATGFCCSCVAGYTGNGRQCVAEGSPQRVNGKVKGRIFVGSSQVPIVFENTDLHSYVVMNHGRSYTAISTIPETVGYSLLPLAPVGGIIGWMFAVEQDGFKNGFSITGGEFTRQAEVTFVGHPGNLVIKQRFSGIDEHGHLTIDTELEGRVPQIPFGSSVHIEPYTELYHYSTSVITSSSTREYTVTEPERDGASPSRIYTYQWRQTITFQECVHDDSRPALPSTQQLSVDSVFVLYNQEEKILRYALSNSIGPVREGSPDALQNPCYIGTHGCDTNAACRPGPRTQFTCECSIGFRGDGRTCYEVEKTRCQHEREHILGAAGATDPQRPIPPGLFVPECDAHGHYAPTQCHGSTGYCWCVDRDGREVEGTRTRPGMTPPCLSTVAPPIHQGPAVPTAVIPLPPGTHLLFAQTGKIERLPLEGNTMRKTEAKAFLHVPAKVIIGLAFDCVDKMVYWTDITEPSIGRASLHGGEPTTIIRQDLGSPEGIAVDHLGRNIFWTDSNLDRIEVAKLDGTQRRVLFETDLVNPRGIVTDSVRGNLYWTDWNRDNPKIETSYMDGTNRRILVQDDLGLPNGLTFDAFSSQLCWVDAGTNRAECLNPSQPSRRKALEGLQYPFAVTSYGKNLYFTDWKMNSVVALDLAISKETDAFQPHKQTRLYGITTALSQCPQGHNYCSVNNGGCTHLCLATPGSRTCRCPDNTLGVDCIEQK

B1: human recombinant cathepsin S (protein)
chain: LPDSVDWREKGCVTEVKYQGSCGACWAFSAVGALEAQLKLKTGKLVSLSAQNLVDCSTEKYGNKGCNGGFMTTAFQYIIDNKGIDSDASYPYKAMDQKCQYDSKYRAATCSKYTELPYGREDVLKEAVANKGPVSVGVDARHPSFFLYRSGVYYEPSCTQNVNHGVLVVGYGDLNGKEYWLVKNSWGHNFGEEGYIRMARNKGNHCGIASFPSYPEI
With B1, the “NIC levels after incubating nidogen-1 with CatS (competitive NIC ELISA)” value is “Approximately 5-fold higher levels of NIC were detected after incubating nidogen-1 with CatS for 24 h”.
